Consider two molecules from patent publication US20260217795A1 (NANJING GENSCRIPT BIOTECH, published 2026).

Assay in all cases: indirect ELISA, VLP coated at 1 ug/mL, antibody in 3-fold dilutions from 1 ug/mL
The target in experiment [1] is T1, recombinant rh.1-type AAV virus-like particles (AAVrh.1 VLP) (adeno-associated virus rh.1 (isolated …)).
T1 construct: The immunogen; VLP self-assembled from VP1, VP2 and VP3 expressed in 293T cells; coated on ELISA plates; also called rh.1-serotype AAV
T1 chain 1: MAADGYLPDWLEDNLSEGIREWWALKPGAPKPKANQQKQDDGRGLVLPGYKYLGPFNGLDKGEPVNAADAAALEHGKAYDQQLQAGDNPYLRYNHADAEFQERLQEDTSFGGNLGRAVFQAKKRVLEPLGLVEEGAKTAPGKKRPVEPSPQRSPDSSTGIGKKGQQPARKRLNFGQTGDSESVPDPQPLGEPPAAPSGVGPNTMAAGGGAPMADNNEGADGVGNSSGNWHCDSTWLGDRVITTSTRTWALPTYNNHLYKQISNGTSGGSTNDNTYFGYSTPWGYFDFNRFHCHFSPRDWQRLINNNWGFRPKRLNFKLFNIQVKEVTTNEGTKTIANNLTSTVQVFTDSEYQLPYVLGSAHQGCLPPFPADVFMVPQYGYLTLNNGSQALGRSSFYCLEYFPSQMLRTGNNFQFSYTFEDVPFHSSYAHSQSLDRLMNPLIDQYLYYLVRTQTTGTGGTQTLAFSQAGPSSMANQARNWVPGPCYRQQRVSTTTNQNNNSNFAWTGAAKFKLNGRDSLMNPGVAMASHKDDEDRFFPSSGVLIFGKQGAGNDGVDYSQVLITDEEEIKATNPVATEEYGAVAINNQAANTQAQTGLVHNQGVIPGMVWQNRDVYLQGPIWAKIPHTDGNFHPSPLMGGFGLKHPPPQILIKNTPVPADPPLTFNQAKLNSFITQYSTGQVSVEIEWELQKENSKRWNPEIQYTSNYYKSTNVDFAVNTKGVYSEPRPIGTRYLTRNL
T1 chain 2: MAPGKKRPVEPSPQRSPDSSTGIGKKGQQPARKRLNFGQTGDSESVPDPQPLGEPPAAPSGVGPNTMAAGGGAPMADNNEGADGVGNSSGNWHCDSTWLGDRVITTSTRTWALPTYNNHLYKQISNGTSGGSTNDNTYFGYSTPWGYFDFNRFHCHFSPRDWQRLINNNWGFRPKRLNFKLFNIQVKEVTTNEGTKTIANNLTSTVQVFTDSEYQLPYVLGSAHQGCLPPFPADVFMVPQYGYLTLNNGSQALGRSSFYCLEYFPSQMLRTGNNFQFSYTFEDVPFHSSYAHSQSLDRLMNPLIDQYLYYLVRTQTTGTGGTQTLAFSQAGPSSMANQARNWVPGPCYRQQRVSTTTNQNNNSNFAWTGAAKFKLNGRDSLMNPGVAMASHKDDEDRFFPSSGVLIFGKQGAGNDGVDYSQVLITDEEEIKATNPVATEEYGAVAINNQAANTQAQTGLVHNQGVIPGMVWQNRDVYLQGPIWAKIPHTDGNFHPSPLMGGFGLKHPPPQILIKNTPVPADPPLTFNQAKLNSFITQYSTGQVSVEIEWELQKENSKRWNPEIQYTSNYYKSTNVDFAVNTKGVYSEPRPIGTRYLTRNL
T1 chain 3: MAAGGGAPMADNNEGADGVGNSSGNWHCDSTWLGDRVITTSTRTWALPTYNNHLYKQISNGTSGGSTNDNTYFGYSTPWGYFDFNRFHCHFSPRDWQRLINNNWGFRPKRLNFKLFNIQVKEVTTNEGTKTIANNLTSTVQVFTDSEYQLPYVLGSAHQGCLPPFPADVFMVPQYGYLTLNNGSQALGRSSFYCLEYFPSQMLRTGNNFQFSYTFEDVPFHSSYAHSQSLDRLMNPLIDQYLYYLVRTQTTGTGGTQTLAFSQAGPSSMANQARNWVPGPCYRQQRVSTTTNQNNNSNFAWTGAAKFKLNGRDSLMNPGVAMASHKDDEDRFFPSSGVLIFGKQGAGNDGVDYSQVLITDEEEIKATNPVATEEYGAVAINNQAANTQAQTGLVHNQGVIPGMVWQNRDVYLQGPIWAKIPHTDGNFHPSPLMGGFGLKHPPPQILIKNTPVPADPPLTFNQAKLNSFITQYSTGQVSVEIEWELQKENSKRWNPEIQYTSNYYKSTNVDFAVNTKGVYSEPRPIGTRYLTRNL

In experiment [2] the target is T2, AAV1 virus-like particle (VLP) (adeno-associated virus 1).
T2 construct: VLP self-assembled from VP1, VP2 and VP3 expressed in 293T cells; coated on ELISA plates; also called VLP of AAV1

Experiment [3] addresses T3, AAV2 virus-like particle (VLP) (adeno-associated virus 2, UniProt P03135 1-735; P03135 1-598; P03135 1-533).
T3 construct: VLP self-assembled from VP1, VP2 and VP3 expressed in 293T cells; coated on ELISA plates; also called VLP of AAV2

The target in experiment [4] is T4, AAV5 virus-like particle (VLP) (adeno-associated virus 5).
T4 construct: VLP self-assembled from VP1, VP2 and VP3 expressed in 293T cells; coated on ELISA plates; also called VLP of AAV5

For experiment [5], the target named is T5, AAV6 virus-like particle (VLP) (adeno-associated virus 6).
T5 construct: VLP self-assembled from VP1, VP2 and VP3 expressed in 293T cells; coated on ELISA plates; also called VLP of AAV6

For experiment [6], the target named is T6, AAV8 virus-like particle (VLP) (adeno-associated virus 8).
T6 construct: VLP self-assembled from VP1, VP2 and VP3 expressed in 293T cells; coated on ELISA plates; also called VLP of AAV8
T6 VP1: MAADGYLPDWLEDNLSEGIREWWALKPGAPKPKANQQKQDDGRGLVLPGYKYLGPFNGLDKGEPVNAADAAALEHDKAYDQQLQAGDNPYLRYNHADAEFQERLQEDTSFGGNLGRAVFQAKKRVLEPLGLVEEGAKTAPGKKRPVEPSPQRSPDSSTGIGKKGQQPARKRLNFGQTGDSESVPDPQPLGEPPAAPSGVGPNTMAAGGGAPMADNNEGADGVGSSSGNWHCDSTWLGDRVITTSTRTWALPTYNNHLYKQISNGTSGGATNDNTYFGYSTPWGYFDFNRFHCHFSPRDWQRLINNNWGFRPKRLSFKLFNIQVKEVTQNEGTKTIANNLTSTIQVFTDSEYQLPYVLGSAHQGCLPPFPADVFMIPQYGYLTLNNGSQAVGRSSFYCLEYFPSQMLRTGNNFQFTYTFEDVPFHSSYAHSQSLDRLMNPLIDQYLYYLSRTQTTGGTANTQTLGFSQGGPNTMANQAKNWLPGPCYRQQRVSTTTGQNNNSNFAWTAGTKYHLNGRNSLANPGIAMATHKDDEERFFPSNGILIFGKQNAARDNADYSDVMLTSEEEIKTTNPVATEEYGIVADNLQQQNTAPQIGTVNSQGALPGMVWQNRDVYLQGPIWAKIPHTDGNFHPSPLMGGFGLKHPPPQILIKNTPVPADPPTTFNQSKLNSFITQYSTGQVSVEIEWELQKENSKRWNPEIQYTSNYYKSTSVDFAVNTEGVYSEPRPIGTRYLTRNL

The target of experiment [7] is T7, AAV9 virus-like particle (VLP) (adeno-associated virus 9).
T7 construct: VLP self-assembled from VP1, VP2 and VP3 expressed in 293T cells; coated on ELISA plates; also called VLP of AAV9

Experiment [8] concerns the target T8, AAVDJ virus-like particle (VLP) (adeno-associated virus DJ).
T8 construct: VLP self-assembled from VP1, VP2 and VP3 expressed in 293T cells; coated on ELISA plates; also called VLP of AAVDJ

B1: 5G4-1 monoclonal antibody (antibody, V domains shown)
VH: QSVKESEGGLFKPADTLSLTCTVSGFSLNNNDMSWVRQAPGNGLEYIGVMSSGGRLYAATWAKSRFTITRNTNLGTVTLKLTSLTAADTATYFCARGSPSSNRGIDIWGPGTLVTVSS
VL: LTQTPSSVSAPVGGTVSINCQSDKSVYADNYLSWYQQTPGQPPKLLIYKASTLASGIPSRFKGSGSGTQFTLAISDVQCDDAATYYCAGGYSGNSDNGFGGGTEVVVR
notes: Rabbit monoclonal antibody, made recombinantly in ExpiCHO-S cells, purified on protein A as IgG and detected with anti-rabbit IgG (Fc-specific); also called clone 5G4-1
In the case of B1, the EC50 in experiment [1] came to 0.51 ng/mL; in experiment [2], 1.03 ng/mL; in experiment [3], 0.94 ng/mL; in experiment [4] it was 1.16 ng/mL; in experiment [5], 0.64 ng/mL; in experiment [6], 1 ng/mL. In addition, the EC50 in experiment [7] amounted to 0.64 ng/mL; in experiment [8] it was 1.12 ng/mL.

B2: 24F7-1 monoclonal antibody (antibody, V domains shown)
VH: QSLRESEGGLFKPADTLTLTCTVSGFSITAYNVGWVRQAPGKGLEWIGVIDISGATFYATWAKSRSTITRDTSLNTVTLKMTSLTAADTATYFCTRDPAFIWGPGTLVTVSS
VL: DVVMTQTPASVEAAVGGTVTIKCQASQSVSSYLAWYQQKPGQPPKLLIYRASTLASGVPSRFKGSGSGTEFTLTISDLECADAATYYCQSYVYSNVLTYFNAFGGGTGVVVK
notes: Rabbit monoclonal antibody, made recombinantly in ExpiCHO-S cells, purified on protein A as IgG and detected with anti-rabbit IgG (Fc-specific); also called clone 24F7-1
Consider B2, for which the EC50 in experiment [1] was found to be 0.93 ng/mL; in experiment [2], 0.79 ng/mL; in experiment [3], 0.51 ng/mL; in experiment [5], 0.61 ng/mL; in experiment [8], 0.5 ng/mL.
